From paper PMC9482650, “Quantitative fragmentomics allow affinity mapping of interactomes” (Nature Communications, 2022)

T1: APBA1_1, Q02410
T1 sequence (Q02410 651-752, limits assumed, looked up): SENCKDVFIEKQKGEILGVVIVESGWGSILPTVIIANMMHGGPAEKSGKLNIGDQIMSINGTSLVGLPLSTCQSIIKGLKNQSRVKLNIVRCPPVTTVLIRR

T2: LIN7B, Q9HAP6
T2 sequence (Q9HAP6 88-185, limits assumed, looked up): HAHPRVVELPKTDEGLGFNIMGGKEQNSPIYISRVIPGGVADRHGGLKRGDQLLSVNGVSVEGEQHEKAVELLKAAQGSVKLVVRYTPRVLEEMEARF

T3: NHERF3_3, Q5T2W1
T3 sequence (Q5T2W1 238-333, limits assumed, looked up): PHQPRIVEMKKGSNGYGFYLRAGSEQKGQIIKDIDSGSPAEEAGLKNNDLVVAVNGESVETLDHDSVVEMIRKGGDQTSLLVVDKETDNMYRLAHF

T4: APBA1_2, Q02410
T4 sequence (Q02410 742-832, limits assumed, looked up): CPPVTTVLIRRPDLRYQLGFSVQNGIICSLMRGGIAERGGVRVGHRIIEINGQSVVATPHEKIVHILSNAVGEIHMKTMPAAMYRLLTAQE

T5: GRIP1_4, Q9Y3R0
T5 sequence (Q9Y3R0 467-571, limits assumed, looked up): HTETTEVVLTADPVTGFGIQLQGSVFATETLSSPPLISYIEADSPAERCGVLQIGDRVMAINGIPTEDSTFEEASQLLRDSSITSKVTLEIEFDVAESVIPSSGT

T6: NHERF3_1, Q5T2W1
T6 sequence (Q5T2W1 4-100, limits assumed, looked up): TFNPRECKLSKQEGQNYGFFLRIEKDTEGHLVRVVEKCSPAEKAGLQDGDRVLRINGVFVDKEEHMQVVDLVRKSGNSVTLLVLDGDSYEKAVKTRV

T7: HTRA4, P83105
T7 sequence (P83105 378-476, limits assumed, looked up): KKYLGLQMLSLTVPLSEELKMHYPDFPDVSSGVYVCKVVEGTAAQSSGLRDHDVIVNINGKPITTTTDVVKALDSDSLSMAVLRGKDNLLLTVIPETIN

T8: RAPGEF6, Q8TEU7
T8 sequence (Q8TEU7 525-625, limits assumed, looked up): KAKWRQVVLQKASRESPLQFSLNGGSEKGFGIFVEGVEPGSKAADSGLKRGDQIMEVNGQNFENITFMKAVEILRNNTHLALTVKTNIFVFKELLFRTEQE

T9: APBA2_2, Q99767
T9 sequence (Q99767 654-744, limits assumed, looked up): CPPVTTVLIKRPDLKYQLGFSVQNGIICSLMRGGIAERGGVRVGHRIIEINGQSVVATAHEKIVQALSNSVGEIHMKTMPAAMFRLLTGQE

T10: SNTB1, Q13884
T10 sequence (Q13884 107-205, limits assumed, looked up): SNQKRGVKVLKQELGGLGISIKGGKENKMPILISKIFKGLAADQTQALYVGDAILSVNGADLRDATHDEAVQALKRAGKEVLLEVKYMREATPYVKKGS

T11: GRIP1_5, Q9Y3R0
T11 sequence (Q9Y3R0 568-668, limits assumed, looked up): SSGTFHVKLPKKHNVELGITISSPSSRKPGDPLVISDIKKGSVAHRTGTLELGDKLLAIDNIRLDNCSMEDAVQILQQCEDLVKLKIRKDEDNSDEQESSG

T12: FRMPD1, Q5SYB0
T12 sequence (Q5SYB0 52-145, limits assumed, looked up): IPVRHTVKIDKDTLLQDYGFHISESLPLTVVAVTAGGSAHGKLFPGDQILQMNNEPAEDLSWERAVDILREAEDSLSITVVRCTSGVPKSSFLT


Experiments:
Assay in all cases: holdup assay
Parameters in all cases: key: below the threshold = too weak to quantify, mostly under pKd 3.1 to 4
Conditions in all cases: plain residues with an end cap or a label only (N-terminal biotin on a linker: ado-ado)
APBA1_1, Q02410 = target: T1, APBA1_1, Q02410
LDB3, O75112 = target: LDB3, O75112
LIN7B, Q9HAP6 = target: T2, LIN7B, Q9HAP6
NHERF3_3, Q5T2W1 = target: T3, NHERF3_3, Q5T2W1
GOPC, Q9HD26 = target: GOPC, Q9HD26
LAP2, Q96RT1 = target: LAP2, Q96RT1
PARD3_3, Q8TEW0 = target: PARD3_3, Q8TEW0
APBA1_2, Q02410 = target: T4, APBA1_2, Q02410
FRMPD3, Q5JV73 = target: FRMPD3, Q5JV73
GRIP1_4, Q9Y3R0 = target: T5, GRIP1_4, Q9Y3R0
NHERF3_1, Q5T2W1 = target: T6, NHERF3_1, Q5T2W1
HTRA4, P83105 = target: T7, HTRA4, P83105
DLG2_3, Q15700 = target: DLG2_3, Q15700
GORASP2, Q9H8Y8 = target: GORASP2, Q9H8Y8
DLG4_1, P78352 = target: DLG4_1, P78352
MAGI2_2, Q86UL8 = target: MAGI2_2, Q86UL8
MAST1, Q9Y2H9 = target: MAST1, Q9Y2H9
RAPGEF6, Q8TEU7 = target: T8, RAPGEF6, Q8TEU7
APBA2_2, Q99767 = target: T9, APBA2_2, Q99767
GRIP2_6, Q9C0E4 = target: GRIP2_6, Q9C0E4
SNTB1, Q13884 = target: T10, SNTB1, Q13884
DLG1_1, Q12959 = target: DLG1_1, Q12959
GRIP1_5, Q9Y3R0 = target: T11, GRIP1_5, Q9Y3R0
FRMPD1, Q5SYB0 = target: T12, FRMPD1, Q5SYB0
GRASP, Q7Z6J2 = target: GRASP, Q7Z6J2
Inadl_6, Q8NI35 = target: Inadl_6, Q8NI35
Inadl_6, Q8NI35, sequence (Q8NI35 1058-1167): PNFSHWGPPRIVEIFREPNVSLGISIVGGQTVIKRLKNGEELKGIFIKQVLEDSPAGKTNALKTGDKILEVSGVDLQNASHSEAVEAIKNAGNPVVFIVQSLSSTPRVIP

FRMPD3, Q5JV73, sequence (Q5JV73 12-100): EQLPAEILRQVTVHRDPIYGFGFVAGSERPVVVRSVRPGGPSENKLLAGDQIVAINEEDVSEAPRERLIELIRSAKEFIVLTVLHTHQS
LDB3, O75112, sequence (O75112 1-94): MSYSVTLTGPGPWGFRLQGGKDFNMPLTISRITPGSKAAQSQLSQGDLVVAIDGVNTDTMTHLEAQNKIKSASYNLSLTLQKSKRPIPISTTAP
GRASP, Q7Z6J2, sequence (Q7Z6J2 96-193): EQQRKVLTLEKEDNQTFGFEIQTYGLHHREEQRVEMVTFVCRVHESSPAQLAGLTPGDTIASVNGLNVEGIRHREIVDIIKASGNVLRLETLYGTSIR
DLG4_1, P78352, sequence (P78352 62-152): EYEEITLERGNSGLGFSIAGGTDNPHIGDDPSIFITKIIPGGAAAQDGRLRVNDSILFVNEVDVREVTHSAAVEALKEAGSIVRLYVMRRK
MAST1, Q9Y2H9, sequence (Q9Y2H9 962-1065): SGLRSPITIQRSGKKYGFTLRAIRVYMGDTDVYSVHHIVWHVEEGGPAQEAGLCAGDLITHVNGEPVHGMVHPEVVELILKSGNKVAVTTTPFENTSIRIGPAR
GRIP2_6, Q9C0E4, sequence (Q9C0E4 648-740): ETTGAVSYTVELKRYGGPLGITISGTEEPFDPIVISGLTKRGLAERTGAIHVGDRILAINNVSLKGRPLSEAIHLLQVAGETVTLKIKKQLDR
MAGI2_2, Q86UL8, sequence (Q86UL8 410-522): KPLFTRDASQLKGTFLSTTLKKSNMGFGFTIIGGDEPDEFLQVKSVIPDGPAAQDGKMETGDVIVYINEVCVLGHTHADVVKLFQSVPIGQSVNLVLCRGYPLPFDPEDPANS
LAP2, Q96RT1, sequence (Q96RT1 other isoform, or with tags, fused parts or gaps): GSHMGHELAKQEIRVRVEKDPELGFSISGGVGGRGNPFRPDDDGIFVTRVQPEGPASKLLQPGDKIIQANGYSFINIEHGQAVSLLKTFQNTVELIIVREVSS
PARD3_3, Q8TEW0, sequence (Q8TEW0 582-685): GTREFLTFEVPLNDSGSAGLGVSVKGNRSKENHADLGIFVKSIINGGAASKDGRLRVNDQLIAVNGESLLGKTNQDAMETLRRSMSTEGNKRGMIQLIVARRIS

| Binder | pKd (APBA1_1, Q02410) | pKd (LDB3, O75112) | pKd (LIN7B, Q9HAP6) | pKd (NHERF3_3, Q5T2W1) | pKd (GOPC, Q9HD26) | pKd (LAP2, Q96RT1) | pKd (PARD3_3, Q8TEW0) | pKd (APBA1_2, Q02410) | pKd (FRMPD3, Q5JV73) | pKd (GRIP1_4, Q9Y3R0) | pKd (NHERF3_1, Q5T2W1) | pKd (HTRA4, P83105) | pKd (DLG2_3, Q15700) | pKd (GORASP2, Q9H8Y8) | pKd (DLG4_1, P78352) | pKd (MAGI2_2, Q86UL8) | pKd (MAST1, Q9Y2H9) | pKd (RAPGEF6, Q8TEU7) | pKd (APBA2_2, Q99767) | pKd (GRIP2_6, Q9C0E4) | further results |
| --- | --- | --- | --- | --- | --- | --- | --- | --- | --- | --- | --- | --- | --- | --- | --- | --- | --- | --- | --- | --- | --- |
| LTAQEQPVYI [APBA1, Q02410] | 3.65 | below the threshold | 3.66 | below the threshold | below the threshold | below the threshold | 4.82 | 4.36 | below the threshold | below the threshold | below the threshold | 4.89 | 3.68 | 4.18 | below the threshold | 3.52 | 3.58 | below the threshold | below the threshold | below the threshold | pKd (SNTB1, Q13884): below the threshold; pKd (DLG1_1, Q12959): below the threshold; pKd (GRIP1_5, Q9Y3R0): below the threshold; pKd (FRMPD1, Q5SYB0): below the threshold; pKd (GRASP, Q7Z6J2): below the threshold; pKd (Inadl_6, Q8NI35): below the threshold |
| RQSILFSTEV [BCR, P11274] | below the threshold | below the threshold | below the threshold | below the threshold | 4.5 | 4.39 | below the threshold | 4.07 | below the threshold | below the threshold | 5.78 | 4.82 | 4 | 3.82 | 4.67 | 3.7 | 4.97 | below the threshold | below the threshold | 4.47 | pKd (SNTB1, Q13884): 4.46; pKd (DLG1_1, Q12959): 4.64; pKd (GRIP1_5, Q9Y3R0): below the threshold; pKd (FRMPD1, Q5SYB0): below the threshold; pKd (GRASP, Q7Z6J2): 5.04; pKd (Inadl_6, Q8NI35): 3.93 |
| PLDSQQHTEV [FAT1, Q14517] | below the threshold | below the threshold | below the threshold | below the threshold | 3.81 | 3.61 | below the threshold | 3.7 | below the threshold | below the threshold | below the threshold | 4.26 | below the threshold | below the threshold | 4.41 | below the threshold | 4.43 | below the threshold | below the threshold | below the threshold | pKd (SNTB1, Q13884): 4.32; pKd (DLG1_1, Q12959): 4.37; pKd (GRIP1_5, Q9Y3R0): below the threshold; pKd (FRMPD1, Q5SYB0): below the threshold; pKd (GRASP, Q7Z6J2): 4.34; pKd (Inadl_6, Q8NI35): below the threshold |

The next lines start with results.

| pKd (APBA1_1, Q02410) | pKd (LDB3, O75112) | pKd (LIN7B, Q9HAP6) | pKd (NHERF3_3, Q5T2W1) | pKd (GOPC, Q9HD26) | pKd (LAP2, Q96RT1) | pKd (PARD3_3, Q8TEW0) | pKd (APBA1_2, Q02410) | pKd (FRMPD3, Q5JV73) | pKd (GRIP1_4, Q9Y3R0) | pKd (NHERF3_1, Q5T2W1) | pKd (HTRA4, P83105) | pKd (DLG2_3, Q15700) | pKd (GORASP2, Q9H8Y8) | pKd (DLG4_1, P78352) | pKd (MAGI2_2, Q86UL8) | pKd (MAST1, Q9Y2H9) | pKd (RAPGEF6, Q8TEU7) | pKd (APBA2_2, Q99767) | pKd (GRIP2_6, Q9C0E4) | Binder | further results |
| --- | --- | --- | --- | --- | --- | --- | --- | --- | --- | --- | --- | --- | --- | --- | --- | --- | --- | --- | --- | --- | --- |
| below the threshold | below the threshold | below the threshold | below the threshold | below the threshold | below the threshold | below the threshold | 4.25 | below the threshold | below the threshold | 4.79 | below the threshold | below the threshold | 3.6 | 3.91 | 4.2 | below the threshold | below the threshold | below the threshold | below the threshold | SRPTKGPTLL [PLEKHH2, Q8IVE3] | pKd (SNTB1, Q13884): below the threshold; pKd (DLG1_1, Q12959): 3.72; pKd (GRIP1_5, Q9Y3R0): below the threshold; pKd (FRMPD1, Q5SYB0): below the threshold; pKd (GRASP, Q7Z6J2): 5.22; pKd (Inadl_6, Q8NI35): below the threshold |
| below the threshold | 3.68 | below the threshold | below the threshold | below the threshold | below the threshold | below the threshold | below the threshold | below the threshold | below the threshold | below the threshold | below the threshold | below the threshold | below the threshold | below the threshold | 3.48 | 3.98 | below the threshold | 3.56 | below the threshold | EEDTAEKDEL [HSPA5, P11021] | pKd (SNTB1, Q13884): below the threshold; pKd (DLG1_1, Q12959): 3.79; pKd (GRIP1_5, Q9Y3R0): below the threshold; pKd (FRMPD1, Q5SYB0): below the threshold; pKd (GRASP, Q7Z6J2): 3.94; pKd (Inadl_6, Q8NI35): below the threshold |
| below the threshold | below the threshold | below the threshold | below the threshold | 3.74 | 3.55 | 3.87 | below the threshold | below the threshold | below the threshold | 4.51 | below the threshold | below the threshold | below the threshold | 3.79 | below the threshold | 4.71 | below the threshold | below the threshold | below the threshold | PELESKESVL [SLC1A4, P43007] | pKd (SNTB1, Q13884): 4.8; pKd (DLG1_1, Q12959): 3.51; pKd (GRIP1_5, Q9Y3R0): below the threshold; pKd (FRMPD1, Q5SYB0): below the threshold; pKd (GRASP, Q7Z6J2): 3.87; pKd (Inadl_6, Q8NI35): 3.57 |
